Data published in patent US20100150902A1 (published 2010).
Substitutions are numbered along the chain they refer to.

T1: recombinant extracellular loop EC2 of human CD151 (amino acids 130 to 221, C-terminal Poly-His tail) (human, UniProt P48509 130-221)
T1 construct: range 130-221; Expressed in soluble form in the periplasm of E. coli from pET22b and purified by IMAC; also called recombinant EC2; recombinant EC2 loop; not shown: Poly-His tail at the C-terminal position
T1 sequence (looked up): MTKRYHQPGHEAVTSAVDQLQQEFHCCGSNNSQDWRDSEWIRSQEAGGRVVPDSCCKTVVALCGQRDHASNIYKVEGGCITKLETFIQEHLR

T2: human CD151 protein (human, UniProt P48509 1-253)
T2 construct: whole, on cells; in HT-29 cell lysate in the Western blots; also called PETA-3; SFA-1
T2 sequence (looked up): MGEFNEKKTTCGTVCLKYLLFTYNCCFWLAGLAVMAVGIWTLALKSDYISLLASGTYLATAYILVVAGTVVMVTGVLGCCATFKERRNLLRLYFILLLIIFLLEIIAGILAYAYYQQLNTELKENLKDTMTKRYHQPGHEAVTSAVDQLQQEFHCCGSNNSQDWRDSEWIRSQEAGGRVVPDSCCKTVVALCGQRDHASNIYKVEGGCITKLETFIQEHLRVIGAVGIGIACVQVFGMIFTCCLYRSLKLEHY

B1: murine monoclonal antibody 203B6 (hybridoma CNCM I-3920) (antibody, mouse IgG1, V domains shown)
VH: EVKLVESGGGLVQPGGSLKLSCAASGFTFSTYTMSWVRQTPEKRLEWVAYISSGGGTTYYPDTVKGRFTISRDNARNTLYLQMNSLKSEDTAMYYCATPRIGTGFAYWGQGTLVTVSA
VL: DIVLSQSPASLALSLGQRATISCRASASVEYYGTSLMHWYQQKPGQPPKLLIYEASNVESGVPARFSGSGSGTDFSLNIHPVEEDDLAIYFCQQSRKAPYTFGGGTKLEIK
notes: also called 203B6 cl1A; [125I]-203B6
B2: murine monoclonal antibody 211F3 (hybridoma CNCM I-3918) (antibody, mouse IgG1, V domains shown)
VH: B1 VH with G10D, G56V, V64I, R76K, Y80F, A97T, T98S, I101T
VL: B1 VL with S5T, E30D, H38Q
notes: also called 211F3 cl1A
B3: murine monoclonal antibody 214B2 (hybridoma CNCM I-3919) (antibody, mouse IgG1, V domains shown)
VH: QVQLQQPGSVLVRPGASVKLSCKASGYTFTSSSMHWAKQRPGQGLEWIGEIHPNSGNTNNNEKFKGKATLTVDTSSSTAYVDLSSLSSEDSAVYYCARARSFYYAMDCWGQGTSVTVSS
VL: NIVMTQSPKSMSMSVGERVTLSCKASENVGTYVSWYQQKPEQSPKLLIYGASNRYTGVPDRFTGSGSATDFTLTISSVQAEDLADYHCGQTYSFPYTFGGGTKLEIK
notes: also called 214B2 cl1A; [125I]-214B2
B4: murine monoclonal antibody 205H8 (hybridoma CNCM I-3921) (antibody, mouse IgG3, V domains shown)
VH: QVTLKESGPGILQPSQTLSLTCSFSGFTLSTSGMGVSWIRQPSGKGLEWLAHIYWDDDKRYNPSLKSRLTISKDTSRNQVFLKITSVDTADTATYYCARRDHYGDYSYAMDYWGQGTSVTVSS
VL: DIVMTQSQKFMSTSEGDRVSITCKASQNVGIAVAWYQQKPGQSPKLLIYSASNRYTGVPDRFTGSGSGTDFTLTISNMQSEDLADYFCQQYSSNPTFGAGTKLELK
notes: also called 205H8 cl1A
B5: chimeric antibody c214B2[IgG1] (antibody, V domains shown)
VH: B3 VH
VL: NIVMTQSPKSMSMSVGERVTLSCKASENVGTYVSWYQQKPEQSPKLLIYGASNRYTGVPDRFTGSGSATDFTLTISSVQAEDLADYHCGQTYSFPYTFGGGTKLEIKR
notes: Variable domains of murine 214B2 fused to human Ckappa and human IgG1 constant domains; made in HEK293/EBNA cells; VL' and 'IgG1 Chim
B6: chimeric antibody c203B6[IgG1] (antibody, V domains shown)
VH: B1 VH
VL: DIVLSQSPASLALSLGQRATISCRASASVEYYGTSLMHWYQQKPGQPPKLLIYEASNVESGVPARFSGSGSGTDFSLNIHPVEEDDLAIYFCQQSRKAPYTFGGGTKLEIKR
notes: Variable domains of murine 203B6 fused to human Ckappa and human IgG1 constant domains; made in HEK293/EBNA cells; VL' and 'IgG1 Chim

These binders were tested against T1, recombinant extracellular loop EC2 of … (assay: ELISA, clone supernatant at 5 µg/ml antibody on coated recombinant EC2 loop).
Description: (§1) For the ELISA, 96-well plates are sensitised for 1 night at +4° C. with the recombinant extracellular loop EC2 at 5 μg/ml in PBS. After washing with PBS, the wells are saturated with 0.5% gelatin solution in PBS for 1 hour at 37° C. and then washed again with PBS. The hybridoma culture supernatants are evaluated without dilution (incubation for 1 hour at 37° C.). The antibodies fixed to the immobilised EC2 loop are detected by successive incubation with a peroxidase-conjugated goat anti-mouse IgG polyclonal antibody (Jackson/USA, dilution to 1/5000, 1 hour at 37° C.) and then with a peroxidase substrate (TMB, Interchim/France, 10 minutes at ambient temperature). The reaction is stopped by addition of 1M sulfuric acid and the optical density (OD) is measured at 450 nm.
The antibody concentration of the supernatants was adjusted to 5 μg/ml for the ELISA and to 10 μg/ml for the flow cytometry analyses.

OD at 450 nm | Binder
2.22 OD at 450 nm | B1
2.3 OD at 450 nm | B2
2.48 OD at 450 nm | B3
1.84 OD at 450 nm | B4

What follows are binders tested against T2, human CD151 protein (assay: flow cytometry, 10 µg/ml antibody on NIH3T3-CD151 transfectant cells).
Description: (§2) The flow cytometry analyses are carried out on 96-well plates. The undiluted hybridoma supernatants are added to 100000 PC3 cells previously introduced into the wells. After incubation for 20 minutes at +4° C. followed by washing, an Alexa488-labelled goat anti-mouse IgG polyclonal antibody (Molecular Probes, dilution to 1/500) is added. The fluorescence intensity (MFI) is determined with the aid of a cytofluorimeter after further incubation for 20 minutes at +4° C.
(§3) The isotypes of the antibodies produced were determined for each culture supernatant using a murine antibody isotyping kit (SBA clonotyping system, Southern Biotech), and then final characterisation was carried out by ELISA (extracellular loop EC2) and by flow cytometry on the murine line NIH 3T3 and the stable transfectant NIH 3T3-CD151, and then on human tumour lines of lung cancer A549, prostate cancer DU145 and pancreatic cancer BxPC3 under the conditions previously described. The antibody concentration of the supernatants was adjusted to 5 μg/ml for the ELISA and to 10 μg/ml for the flow cytometry analyses.

MFI | Binder
540 MFI | B1
556 MFI | B2
748 MFI | B3
332 MFI | B4

What follows are binders tested against T1, recombinant extracellular loop EC2 of … (assay: ELISA, undiluted hybridoma supernatant on coated recombinant EC2 loop (5 µg/ml)).
Description: as §1

OD 450 nm | Binder
1.13 OD 450 nm | B1
0.959 OD 450 nm | B2
0.684 OD 450 nm | B3
0.649 OD 450 nm | B4

Each binder was assayed against T2, human CD151 protein (assay: saturation binding of 125I-labelled antibody to PC3 cells, 1 hour at 4°C, Scatchard analysis).
Description: The affinity of the 2 radiolabelled antibodies for their CD151 target on the cell surface was then measured for PC3 prostate cancer cells. The dissociation constant KD of the antibodies was determined by the method of Scatchard. […] After incubation, the total radioactivity associated with the cells (fixed radiolabelled antibody) was measured using a gamma counter. The non-specific fixing was determined, for each concentration tested, in the presence of an excess of non-radiolabelled antibody (×100). The specific fixing is calculated by subtracting the non-specific radioactivity from the total radioactivity.

Kd | Binder
12.8 nM | B1
6.38 nM | B3

These binders were tested against T2, human CD151 protein (assay: flow cytometry, 10 µg/ml antibody on DU145 cells).
Description: as §2, §3

MFI | Binder
860 MFI | B1
524 MFI | B2
1330 MFI | B3
584 MFI | B4

Each binder was assayed against T1, recombinant extracellular loop EC2 of … (assay: competition ELISA on coated recombinant EC2; competitor murine 214B2 at 80 ng/ml, detected with anti-mouse IgG).
Description: (§4) Briefly, 96-well ELISA plates were coated with recombinant EC2 at 5 μg/ml in PBS overnight at 4° C. […] For control experiments, no murine antibody was added. Horseradish peroxidase-conjugated polyclonal goat anti-mouse IgG was added at a 1/5000 dilution in PBS and incubated for 1 h at 37° C. After incubation with the peroxidase substrate TMB for 10 min at room temperature, the reaction was stopped with 1 M sulfuric acid and the optical density at 450 nm was measured.

IC50 | Binder
0.69 µg/mL | B5

Each binder was assayed against T1, recombinant extracellular loop EC2 of … (assay: competition ELISA on coated recombinant EC2; competitor murine 203B6 at 80 ng/ml, detected with anti-mouse IgG).
Description: as §4

IC50 | Binder
0.71 µg/mL | B6

These binders were tested against T2, human CD151 protein (assay: flow cytometry, 10 µg/ml antibody on BxPC3 cells).
Description: as §2, §3

MFI | Binder
768 MFI | B1
536 MFI | B2
849 MFI | B3
350 MFI | B4

The binders below were run against T2, human CD151 protein (assay: flow cytometry, 10 µg/ml antibody on A549 cells).
Description: as §2, §3

MFI | Binder
675 MFI | B1
481 MFI | B2
820 MFI | B3
388 MFI | B4

The binders below were run against T2, human CD151 protein (assay: flow cytometry, undiluted hybridoma supernatant on PC3 cells).
Description: as §2

MFI | Binder
975 MFI | B1
936 MFI | B2
1000 MFI | B3
595 MFI | B4
